Assay results reported in patent US20240409645A1.

T1: human common cytokine receptor γ-chain (γc; IL-2Rγ; CD132), recombinant protein (human) (UniProt P31785)
T1 sequence: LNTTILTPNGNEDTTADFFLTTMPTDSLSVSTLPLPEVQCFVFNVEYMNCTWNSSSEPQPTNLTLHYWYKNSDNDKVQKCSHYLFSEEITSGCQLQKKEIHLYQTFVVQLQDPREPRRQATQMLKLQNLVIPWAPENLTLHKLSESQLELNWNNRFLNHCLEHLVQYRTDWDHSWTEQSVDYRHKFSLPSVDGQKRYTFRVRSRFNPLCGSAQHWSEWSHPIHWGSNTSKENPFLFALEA

T2: human interleukin-2 receptor β-chain (IL-2Rβ; CD122), recombinant protein (human) (UniProt P14784)
T2 sequence: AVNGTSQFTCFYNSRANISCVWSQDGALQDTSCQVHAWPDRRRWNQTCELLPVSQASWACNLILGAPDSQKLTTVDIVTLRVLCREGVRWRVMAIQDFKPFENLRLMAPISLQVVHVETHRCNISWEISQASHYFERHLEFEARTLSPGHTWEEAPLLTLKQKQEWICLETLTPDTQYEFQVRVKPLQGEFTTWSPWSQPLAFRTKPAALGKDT

T3: mouse IL-2Rβ (mouse) (UniProt P16297)
T3 sequence (looked up): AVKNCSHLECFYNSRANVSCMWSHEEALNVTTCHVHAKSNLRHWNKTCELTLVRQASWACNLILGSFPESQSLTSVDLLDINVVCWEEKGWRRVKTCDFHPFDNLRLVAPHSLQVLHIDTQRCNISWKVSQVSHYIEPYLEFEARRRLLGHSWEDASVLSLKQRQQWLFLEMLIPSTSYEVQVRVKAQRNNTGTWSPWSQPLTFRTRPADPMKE

T4: cynomolgus monkey IL-2Rβ/CD122 subunit (cynomolgus monkey) (UniProt Q38J85)
T4 sequence (looked up): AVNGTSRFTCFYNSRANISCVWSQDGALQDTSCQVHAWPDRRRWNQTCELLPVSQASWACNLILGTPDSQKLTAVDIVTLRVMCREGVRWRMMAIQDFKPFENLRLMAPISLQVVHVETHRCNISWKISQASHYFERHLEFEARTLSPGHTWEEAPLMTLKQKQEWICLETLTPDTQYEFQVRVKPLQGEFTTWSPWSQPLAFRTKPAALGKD

T5: mouse IL-2Rα (mouse) (UniProt P01590)
T5 sequence (looked up): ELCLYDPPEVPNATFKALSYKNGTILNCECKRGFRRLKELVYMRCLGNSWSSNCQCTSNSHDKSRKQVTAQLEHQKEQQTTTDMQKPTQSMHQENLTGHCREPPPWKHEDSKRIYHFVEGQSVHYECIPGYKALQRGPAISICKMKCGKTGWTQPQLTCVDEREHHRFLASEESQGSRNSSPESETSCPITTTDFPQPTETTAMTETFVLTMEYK


Columns and labels:
[1] = target: cynomolgus monkey IL-2Rγ/CD132 subunit (cynomolgus monkey); assay: ELISA, monovalent VHH-hFc
[2] = target: T1, human common cytokine receptor γ-chain (γc; IL-2Rγ; CD132), recombinant protein (human); assay: ELISA, monovalent VHH-hFc
[3] = target: T2, human interleukin-2 receptor β-chain (IL-2Rβ; CD122), recombinant protein (human); assay: ELISA, monovalent VHH-hFc
[4] = target: T3, mouse IL-2Rβ (mouse); assay: P.E. binding ELISA
[5] = target: T4, cynomolgus monkey IL-2Rβ/CD122 subunit (cynomolgus monkey); assay: ELISA, monovalent VHH-hFc
[6] = target: T4, cynomolgus monkey IL-2Rβ/CD122 subunit (cynomolgus monkey); assay: ELISA, monovalent; EC50 cyno vs human subunit
[7] = target: T5, mouse IL-2Rα (mouse); assay: P.E. binding ELISA

cynomolgus monkey IL-2Rγ/CD132 subunit (cynomolgus monkey), sequence (chain, as listed by the source): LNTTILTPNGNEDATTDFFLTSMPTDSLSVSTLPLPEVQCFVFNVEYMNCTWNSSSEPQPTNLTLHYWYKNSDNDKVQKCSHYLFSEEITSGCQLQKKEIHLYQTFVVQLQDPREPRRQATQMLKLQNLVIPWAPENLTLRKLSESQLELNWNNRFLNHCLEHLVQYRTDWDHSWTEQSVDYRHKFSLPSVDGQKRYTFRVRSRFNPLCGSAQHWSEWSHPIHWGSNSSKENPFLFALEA

Row | Binder | EC50 [3] [nM] | OD450 nm [4] [OD450 nm] | further results
1 | 36-MP07F02 VHH-hFc, monospecific monovalent (Fc fusion, part only; not given: Both Fc arms and linker, not shown: another chain or arm of the molecule; a dimerising Fc or GST; small tags and cut ends) VHH: QVQLVESGGGLVQAGGSLRLSCAASGRTLSRYAMGWFRQAPGSEREFVAASSWGGDTFYADSVEGRFTFSRDNAKNAVYLQMNSLQPEDTAAYYCAAAPTSFPTTAYSSSNSYAYWGQGTQVTVSS |  |  | EC50 [1]: 0.222 nM; EC50 [2]: 0.145 nM
2 | 20-MP03F10 VHH-hFc, monospecific monovalent (Fc fusion, part only; not given: Both Fc arms and linker, not shown: another chain or arm of the molecule; a dimerising Fc or GST; large carriers; small tags and cut ends) VHH: EVQLVESGGGLVQAGGSLRLSCAASGRDFSSYAMGWFRQAPGKEREFVVAITWTKRSTDFPDSVKGRFTISRDNAKNTVYLDMNSLKPEDTAVYYCASARGLPVTPLGDIIYWGEGTLVTVSS | 0.197 |  | 
3 | 20-MP03F10 VHH (periplasmic extract) (VHH) VHH: EVQLVESGGGLVQAGGSLRLSCAASGRDFSSYAMGWFRQAPGKEREFVVAITWTKRSTDFPDSVKGRFTISRDNAKNTVYLDMNSLKPEDTAVYYCASARGLPVTPLGDIIYWGEGTLVTVSS |  | 0.048 | 
4 | 17-MP02C09 VHH (periplasmic extract) (VHH) VHH: QVQLQESGGGLVQAGGSLRLSCVASGSVSSINGMAWYRQGADNQRVLVAAISRVGNTAYGDSVKGRFTISRQNARNTVYLQMNSLKPEDTAVYYCNADSWGGDDYWGQGTQVTVSS |  | 0.047 | 
5 | 17-MP02C09 VHH-hFc, monospecific monovalent (Fc fusion, part only; not given: Both Fc arms and linker, not shown: another chain or arm of the molecule; a dimerising Fc or GST; large carriers; small tags and cut ends) VHH: QVQLQESGGGLVQAGGSLRLSCVASGSVSSINGMAWYRQGADNQRVLVAAISRVGNTAYGDSVKGRFTISRQNARNTVYLQMNSLKPEDTAVYYCNADSWGGDDYWGQGTQVTVSS | 0.148 |  | EC50 [5]: 0.495 nM; Fold change [6]: 3.3 fold
6 | 1-MP01H01 VHH (periplasmic extract) (VHH) VHH: EVQLVESGGGLVQAGGSLRLSCAASGRTFRTHNMGWFRRAPGKEREFVAAISWNVDNTLYADSVKGRFTISRDNGRNMVYLQMNSLKPEDTAVYYCAADNIPLSSDVAATATEYDYWGQGTQVTVSS |  |  | OD450 nm [7]: 0.048 OD450 nm
7 | 22-MP03F12 VHH-hFc, monospecific monovalent (Fc fusion, part only; not given: Both Fc arms and linker, not shown: another chain or arm of the molecule; a dimerising Fc or GST; large carriers; small tags and cut ends) VHH: EVQLVESGGGLVQAGGSLRLSCAASGSIFSINAMAWFRQVPGMERELVAAISRDGGASVYRDSVKGRFTISRDNSKNTVYLQMNTLKPEDTAIYVCAATRAIGWTARWITTDFDFWGQGTQVTVSS | 0.092 |  | EC50 [5]: 0.156 nM; Fold change [6]: 1.7 fold
8 | 22-MP03F12 VHH (periplasmic extract) (VHH) VHH: EVQLVESGGGLVQAGGSLRLSCAASGSIFSINAMAWFRQVPGMERELVAAISRDGGASVYRDSVKGRFTISRDNSKNTVYLQMNTLKPEDTAIYVCAATRAIGWTARWITTDFDFWGQGTQVTVSS |  | 0.048 | 
9 | 15-MP02E06 VHH-hFc, monospecific monovalent (Fc fusion, part only; not given: Both Fc arms and linker, not shown: another chain or arm of the molecule; a dimerising Fc or GST; small tags and cut ends) VHH: QVQLVESGGGSVQPGGSLRLSCAASGFTFSNYAMSWVRQAPGKGLEWVASITGFGRGTDYADSVKGRFTISRDNAEDTLYLQMNSLKPEDTAVYYCAKYSSSTYYPPTPARGRDYRGQGTQVTVSS | 0.64 |  | 
10 | 15-MP02E06 VHH (periplasmic extract) (VHH) VHH: QVQLVESGGGSVQPGGSLRLSCAASGFTFSNYAMSWVRQAPGKGLEWVASITGFGRGTDYADSVKGRFTISRDNAEDTLYLQMNSLKPEDTAVYYCAKYSSSTYYPPTPARGRDYRGQGTQVTVSS |  | 0.048 | 
11 | 16-MP02B08 VHH-hFc, monospecific monovalent (Fc fusion, part only; not given: Both Fc arms and linker, not shown: another chain or arm of the molecule; a dimerising Fc or GST; large carriers; small tags and cut ends) VHH: EVQLVESGGGLVQAGGSLRLSCAASGRAIENYPVGWFRQAPGKEREFVAAITWISGSTLYADSVKGRFTISRDNAKNTVYLQMSSLKPEDTALYYCAAALKTITRGQNDYSYWGQGTQVTVSS | 0.215 |  | EC50 [5]: 0.28 nM; Fold change [6]: 1.3 fold
12 | 16-MP02B08 VHH (periplasmic extract) (VHH) VHH: EVQLVESGGGLVQAGGSLRLSCAASGRAIENYPVGWFRQAPGKEREFVAAITWISGSTLYADSVKGRFTISRDNAKNTVYLQMSSLKPEDTALYYCAAALKTITRGQNDYSYWGQGTQVTVSS |  | 0.048 | 
